Experimental data: patent publication US10801046B2, “Methods and materials for biosynthesizing multifunctional, multivariate molecules via carbon chain modification” (INVISTA NORTH AMERICA S.A.R.L., priority 2016, dated 2020)

Assay: In vivo aminotransferase activity screening, 7-aminoheptanoate by LC-MS
Format: cell-based, Escherichia coli
Details: in vivo conversion of 7-oxoheptanoate to 7-aminoheptanoate, 120 aminotransferases screened
Summary of the method: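 Aminotransferase library expressed in E. coli T7 Express lysY/Iq co-expressing sfp, CAR_Srot and BioC, grown overnight at 37° C in rich media with 0.4 mM IPTG and 1 g/L monomethyl heptanedioate, heptanedioate or no acid. Culture supernatants analysed by LC-MS for 7-aminoheptanoate or its monomethyl ester.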

Molecule | 7-aminoheptanoate yield compared to the positive control (F2XBU9)
SEQ ID NO: 117: Thermomicrobium roseum aminotransferase (protein, Thermomicrobium roseum (strain ATCC 27502 / DSM 5159 / P-2), Thermomicrobium roseum aminotransferase) MTEVAAVHPEPRTAPDFEQEALKHVWIHSAEWIRLAEERGFRVFERAYGSTLVDVYGREFIDGLSGLWVVNAGHGRKEIAEAMAEQASKLAYVSSANHTTVPTVRLAHELALRLPGDLNRVFFCSGGSEAVESAIKIAKQVQAMRGFPKRYKIIARRGSYHGMTYGAMSLTQSRNEKFFGPFMYGVYYVPSPNRYRNDFGLEGEEGDLMCANYVEQEILYQDPETVAAVIGEPISTSNGVHVPSPKYWQRLREICDKYGVLLIMDEVINGFGRTGKLFAAEHFGVVPDLMTMAKGITSGYAPMGAVAVRDSVFQIFQEQKEVPLGHLLTFGGHAVAAAAALKNLEIFEREGLVQQSAEKGAYLLERLKELLRHPTVGDVRGLGLMCGIELVKSKATKEKWPRNSAFIKALERRMNEKGLLTRVWEIVHVAPPLVVTYEELDRIVTIIDEALTETENEFASEIAE | higher 7-aminoheptanoate yields
SEQ ID NO: 179: Sphingobacterium spiritivorum ATCC 33861 aminotransferase (protein, Sphingobacterium spiritivorum ATCC 33861, Sphingobacterium spiritivorum ATCC 33861 aminotransferase) MIKEATVHERLAKHILADGLPLVIDLEKSHDSYIVDIEGNEYLDMFSMFASSPIGYNHPHIVKNSDLLKKVAINKLALSDIYPREFADFVDTFERVAIPAELSYCFFIDGGALAVENALKAAFDWKTRLNISRGIQQEASEVIHFKQAFHGRTGYTLSLTNTKDPRKYMYFPKFDWPRITNPKLHFPLTEESVTETIKAEQQAIQEIEAAIAKNPDAIACLILEPIQAEGGDNHFRTEFFQELRRICDDHDILLILDEVQTGLALTGKMWAYEHYGIIPDLISFGKKSQVCGVLAHREKFDRVEKHVFKESSRINSTFGGNLVDMMRFKLILEVIEQENLVQQAESLGEYLLEKLEQLAKRHSQLSNVRGKGLLASFDFQTEQQRDEFVKRAMNNKLLILGCGDKSIRFRPHLTVTVEQLDKALALVEKSL | higher 7-aminoheptanoate yields
SEQ ID NO: 123: Pseudomonas sp. 10-1B aminotransferase (protein, Pseudomonas sp. 10-1B, Pseudomonas sp; 10-1B aminotransferase) MENSMSLNDLQQRDIDNLLHPYTNHHLHQSQGPHVITGGDGIYVTDDQGNRYIEGLAGLFCASLGFSEPRLAQAAFEQLQRMPFYHAFAHKSTQPGIELAERLLAMAPPSMSKVFFANSGSEANDTAVKLIWYYHNAIGQPQKKKIIARQRGYHGVTVASASLTGLPNNHRDFDLPIANILHTDCPHYYRYGLPGESEAAFVDRCVANLEALILHEGADTIAAFFAEPVMVSGGVILPPQGYFAKVQALLRKYDILFVVDEVICGFARTGNMFGWQTYDLQPDMISLAKQLSAAYMPISALLVNDKIDQALKAQSEKIGSFSHGFTYGGHPVAAAVALEAQKIYQERDIVGHVRRVAPRFQAGIRRLGEHPLIGEARGVGLVAGLEFVRNKQTRETFAPEQSAAAYAGRRAQAHGVITRGLGDTLSLCPALIIDEEQIDDLIVRIERALDDTLAWAREQGLVDA | higher 7-aminoheptanoate yields
SEQ ID NO: 178: Defluviimonas sp. 20V17 aminotransferase (protein, Defluviimonas sp. 20V17, Defluviimonas sp; 20V17 aminotransferase) MNELSNSVAHADITTILHPYTDARMHEQKGPLVIEKGDGVHVIDQSGKRYIEAMSGLWSVAVGFSQTRLRDAAAAQMEKLPYYHTFASKSHEPSVRLAEKLVEMTPENLTRVFYTSSGSEANDTVIKLVWYMNNALGRPQKKKFLARNKAYHGITIASGSLTGLPGNHRDFDLPAIPVVHLTCPHLYRFGQEGETEAQFCARLLKEAEDTILAEGPETIAAFIGEPVMGAGGVMVPPEGYWQGIEALCRKYDILLVSDEVINGFGRTGARWGCEKMGFTPDILVTSKQLTSSYMPLAAIVFSEDIYNVIADNTHKLGGFGHGFTASGHPVACAVGLENLAIIEEQGLMENAAKMGERLQAGLAKLADHPLVGEVRGTGLIAAVELVADKATKRPFDPVGKVGGKVFEYGHEEGVIFRNLGDSIAVCPPLIVTEHDVDEIVRLMGIAIDRAADWARAEGLVA | higher 7-aminoheptanoate yields
SEQ ID NO: 181: Bradyrhizobium sp. DOA9 aminotransferase (protein, Bradyrhizobium sp. DOA9, Bradyrhizobium sp; DOA9 aminotransferase) MVAKQLSNSLAHADISATLHPYTNARAHERQGPVIIDRGEGIYVYDDAGKEYIEGLAGLWSVAIGFDEPRIVEVAAAQMAKLPYYHTFSHKSHEPSIRLAEKLVGMTPEPLSRVFFTSSGSEANDTMIKMVWYMNNALGRPKKKKFLARHRAYHGVTVASGSLTGLPNNHKDFDLPVIPVRHLTCPHFYRFAQTEETEAEFSARLVSEAEATILEEGPDTIAAFVGEPLMAAGGVMPPPKGYWQGIEALCRKYDILLVADEVICGLGRLGTRFGCEHYHFTPDIMIVSKQLTSSYMPLAAVIFSETIYNAIADNTAKIGTFGHGFTASGHPVATAVALENLKIIEERDLVGNAARMGRILQARLGELAAHPLVGEVRGVGLIAGIELVSEKHTRRPFASAGEVGAAAFAAAQRHGLIVRAIGDTIALCPPLIINEDQVHELVARLGDALDDTAQWRSAENLN | higher 7-aminoheptanoate yields
SEQ ID NO: 180: Ramlibacter tataouinensis aminotransferase (protein, listed as Ramlibacter tataouinensis, Ramlibacter tataouinensis (strain ATCC BAA-407 / DSM 14655 / LMG 21543 / TTB310), Ramlibacter tataouinensis aminotransferase) MAYNDFDTGNHWLPFTPNRHFKKEPRVFVAADGMHFTTHDGRQVVDGISSLWCVGAGHNRKPINEAIKKQLDTLDYATAFNAANDQAFLAAQKIAAMAPGDLNKVLFCNSGSEAADTSMKVALAYHRARGEGHRNIFIGRERGYHGVGFGGMSVGGIPANRKVYGTALLPRVDHMRFIHDPANAYIHNQEPVSQEDYLLELEQRILPLHSPENVAAIIVEPVAGSAGWYLPPKGYLKRLREICDKHGILLIFDEVITGFGRMGTSFGADFYGVVPDMLNFAKCVTNGVIPLGGVICRDKLYDTMMKTDAPEHVIEFFHGYTYSGHPVSCAAAIATLDLYQKEGLFPRAGEMGKVLGDAFHSTFKGLPNVVGIRSLGLAAAVELAPIAGLPGKRAYDIYLDCFRKGALVRPAGDVVVIAPPYVVEKSHIDQLVNTLADSIRQHA | higher 7-aminoheptanoate yields
SEQ ID NO: 177: Pseudooceanicola batsensis aminotransferase (protein, listed as Pseudooceanicola batsensis, Pseudooceanicola batsensis (strain ATCC BAA-863 / DSM 15984 / KCTC 12145 / HTCC2597), Pseudooceanicola batsensis aminotransferase) MKDDNFLKEHNARALWHPMGAPGDSMANPPVIISSASGSRIRDIDGHETVDGVGGLWCANLGYSNDAVKEAIAKQLHELPYYSAFAGCTNPSAIEASVAVQEFFAEDGIGRVFFTSGGSDSVDTCLRLARQYHQVKGAPTRTKFLSLKKGYHGTHFGGASVNGNNRFRIGYEPLLPGCFHLTAPHAYRNPYDEADPAALARKIAAEMVDEIEFQGPETIAAFIMEPILGAGGVIVPDPTFMGLMREICTRYGILMIADEVICGFGRTGDWTGSRHWGVRPDMMSVAKGITSAYFPVGAALISEEVAEVFEKDTSGAAAIWHGYTYSAHPVGAAAVTACLSETLRLDTRTNAAARGTQLYQGLLGLKEKYDIIGDVRGGHGLMTAIEFVTDRAKKTPMDAATVKTIHSRVYEAGAMVRPAPPNLLMSPPLIITEAEVRTIIEALDTAIGSV | higher 7-aminoheptanoate yields
